First the molecules themselves.
B1: Calcium-binding protein 39 (Homo sapiens), Q9Y376 (parent)
chain: MPFPFGKSHKSPADIVKNLKESMAVLEKQDISDKKAEKATEEVSKNLVAMKEILYGTNEKEPQTEAVAQLAQELYNSGLLSTLVADLQLIDFEGKKDVAQIFNNILRRQIGTRTPTVEYICTQQNILFMLLKGYESPEIALNCGIMLRECIRHEPLAKIILWSEQFYDFFRYVEMSTFDIASDAFATFKDLLTRHKLLSAEFLEQHYDRFFSEYEKLLHSENYVTKRQSLKLLGELLLDRHNFTIMTKYISKPENLKLMMNLLRDKSRNIQFEAFHVFKVFVANPNKTQPILDILLKNQAKLIEFLSKFQNDRTEDEQFNDEKTYLVKQIRDLKRPAQQEA
B2: Calcium-binding protein 39 (Homo sapiens), Q9Y376 (parent)
chain: B1 chain
partner: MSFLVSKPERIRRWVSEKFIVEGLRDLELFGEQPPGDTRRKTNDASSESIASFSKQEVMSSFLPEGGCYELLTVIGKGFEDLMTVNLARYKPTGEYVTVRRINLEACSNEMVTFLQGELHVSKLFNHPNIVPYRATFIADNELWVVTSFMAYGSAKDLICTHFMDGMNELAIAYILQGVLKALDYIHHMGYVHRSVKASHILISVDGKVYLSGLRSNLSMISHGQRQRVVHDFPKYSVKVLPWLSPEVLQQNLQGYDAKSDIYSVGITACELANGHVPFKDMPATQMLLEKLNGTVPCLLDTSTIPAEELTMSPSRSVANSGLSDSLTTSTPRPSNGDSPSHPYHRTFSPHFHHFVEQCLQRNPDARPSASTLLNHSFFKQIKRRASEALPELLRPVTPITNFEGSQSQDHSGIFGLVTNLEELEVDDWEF

Experiment [1] covers variants of B1. The note with it: with stk39_human STK39, Q9UEW8.
Experiment [2] covers variants of B1. The note with it: with oxsr1_human OXSR1, O95747.
oxsr1_human OXSR1, O95747, sequence (O95747 whole entry, looked up): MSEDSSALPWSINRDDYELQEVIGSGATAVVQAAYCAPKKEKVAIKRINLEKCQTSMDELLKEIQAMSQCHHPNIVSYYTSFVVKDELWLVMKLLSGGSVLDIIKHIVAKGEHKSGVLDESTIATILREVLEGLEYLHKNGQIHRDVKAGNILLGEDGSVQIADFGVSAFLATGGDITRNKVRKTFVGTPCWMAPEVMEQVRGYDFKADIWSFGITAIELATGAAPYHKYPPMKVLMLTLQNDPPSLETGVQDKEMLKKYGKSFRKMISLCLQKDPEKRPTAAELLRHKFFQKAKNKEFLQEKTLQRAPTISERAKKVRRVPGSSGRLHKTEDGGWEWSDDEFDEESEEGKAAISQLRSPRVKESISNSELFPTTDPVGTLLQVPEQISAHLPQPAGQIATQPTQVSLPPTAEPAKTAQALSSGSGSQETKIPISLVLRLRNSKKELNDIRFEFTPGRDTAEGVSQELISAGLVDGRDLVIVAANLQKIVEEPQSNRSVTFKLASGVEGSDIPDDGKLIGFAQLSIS
Experiment [3] covers variants of B1. The note with it: with stk26_human STK26, Q9P289.
stk26_human STK26, Q9P289, sequence (Q9P289 whole entry, looked up): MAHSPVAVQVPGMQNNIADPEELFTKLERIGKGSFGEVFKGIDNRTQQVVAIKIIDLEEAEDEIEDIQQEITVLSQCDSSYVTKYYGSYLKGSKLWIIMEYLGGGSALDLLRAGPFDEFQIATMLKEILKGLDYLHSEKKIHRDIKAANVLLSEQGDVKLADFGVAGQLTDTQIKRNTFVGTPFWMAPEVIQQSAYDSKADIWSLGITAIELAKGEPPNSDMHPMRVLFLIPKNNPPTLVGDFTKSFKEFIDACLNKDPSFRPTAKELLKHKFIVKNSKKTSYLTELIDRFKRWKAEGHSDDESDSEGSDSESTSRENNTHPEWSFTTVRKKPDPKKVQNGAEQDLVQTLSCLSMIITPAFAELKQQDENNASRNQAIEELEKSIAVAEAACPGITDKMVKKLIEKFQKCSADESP
Experiment [4] covers variants of B1. To be noted: with stk26_human STK26, Q9P289. This is another data set of the same source.
Variants of B1 are the subject of experiment [5]. To be noted: with stk39_human STK39, Q9UEW8. This is another data set of the same source.
Variants of B1 are the subject of experiment [6]. The note with it: with oxsr1_human OXSR1, O95747. The source holds these as a separate data set.
In experiment [7] the parent is B1. To be noted: with stk25_human STK25, O00506.
stk25_human STK25, O00506, sequence (O00506 whole entry, looked up): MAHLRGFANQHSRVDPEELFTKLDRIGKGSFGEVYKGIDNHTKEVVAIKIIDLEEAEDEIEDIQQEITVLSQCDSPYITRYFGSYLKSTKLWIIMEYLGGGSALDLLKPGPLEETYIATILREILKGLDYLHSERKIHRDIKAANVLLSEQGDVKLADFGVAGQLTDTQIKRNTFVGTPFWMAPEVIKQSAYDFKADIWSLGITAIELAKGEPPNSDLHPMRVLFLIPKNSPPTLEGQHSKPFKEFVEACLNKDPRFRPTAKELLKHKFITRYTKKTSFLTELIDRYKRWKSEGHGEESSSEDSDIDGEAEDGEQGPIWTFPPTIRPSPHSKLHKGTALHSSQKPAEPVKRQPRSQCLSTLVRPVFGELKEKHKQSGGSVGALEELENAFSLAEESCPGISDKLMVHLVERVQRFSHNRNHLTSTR
The variants in experiment [8] derive from B1. To be noted: with stk26_human STK26, Q9P289. The source holds these as a separate data set.
In experiment [9] the parent is B1. To be noted: with stk39_human STK39, Q9UEW8. This is another data set of the same source.
Experiment [10] covers variants of B1. The note with it: with oxsr1_human OXSR1, O95747. The source holds these as a separate data set.
Experiment [11] covers variants of B2. To be noted: with straa_human STRADA.

On to M260A, for which the “effect of a mutation on the interaction” value is reported as “disrupting interaction” in [1]; “disrupting interaction” in [2]; “disrupting interaction” in [3]; “decreasing interaction” in experiment [4]; “decreasing interaction” in experiment [5]; “decreasing interaction” in experiment [6]. Besides, the “effect of a mutation on the interaction” value in [7] is “disrupting interaction”.
Turning to R227A, the “effect of a mutation on the interaction” value in [1] is “disrupting interaction”; in experiment [2], “disrupting interaction”; in [3], “disrupting interaction”; in experiment [8], “decreasing interaction”; in experiment [9] it was “decreasing interaction”; in experiment [10], “decreasing interaction”. The “effect of a mutation on the interaction” value in [7] is reported as “disrupting interaction”.
As to R227A, the “effect of a mutation on the interaction” value in [11] is reported as “disrupting interaction”.
Same read-out and setting: with M260A the entry was “disrupting interaction”.

These data come from IntAct's records for PubMed 21423148.
